Source: patent US20250019429A1 (Janssen / Centocor, published 2025)

B1: TNV148 (antibody, human IgG1, kappa, V domains shown)
VH: QVQLVESGGGVVQPGRSLRLSCAASGFIFSSYAMHWVRQAPGNGLEWVAFMSYDGSNKKYADSVKGRFTISRDNPKNTLYLQMNSLRAEDTAVYYCARDRGIAAGGNYYYYGMDVWGQGTTVTVSS
VL: EIVLTQSPATLSLSPGERATLSCRASQSVYSYLAWYQQKPGQAPRLLIYDASNRATGIPARFSGSGSGTDFTLTISSLEPEDFAVYYCQQRSNWPPFTFGPGTKVDIKR
notes: Hybridoma-derived fully human IgG1 kappa; also called GenTNV148.26.12; C420A
B2: TNV86 (antibody, human IgG1, kappa, V domains shown)
VH: B1 VH
VL: B1 VL
notes: also called GenTNV86.14.34; C417A

Tests used:
recombinant human TNFα [1] = target: T1, recombinant human TNFα (human, UniProt P01375 77-233); assay: inhibition of 125I-TNFα binding to plate-coated p55-sf2 by hybridoma supernatant
T1 construct: also called huTNFα; tumor necrosis factor alpha
Procedure: (§1) Assay for Inhibition of TNF Binding to Receptor. […] 50:1 of p55-sf2 at 0.5: g/ml in PBS was added to Optiplates to coat the wells during a one-hour incubation at 37° C. Serial dilutions of the eight TNV cell supernatants were prepared in 96-well round-bottom plates using PBS/0.1% BSA as diluent. […] The mixture was preincubated for one hour at RT. […] After 2 hrs at RT, Optiplates were washed three times with PBS-Tween. […] of Microscint-20 was added and the cpm bound determined using the TopCount gamma counter.

recombinant human TNFα [2] = target: T1, recombinant human TNFα; assay: competition: mAb in hybridoma supernatant preincubated with 125I-TNFα (5 ng/ml), then 125I-TNFα bound to plate-coated p55-sf2 counted as cpm
Procedure: Although eight TNV mAb samples were tested in these experiments, for simplicity three of the mAbs that were shown by DNA sequence analyses to be identical to one of the other TNV mAbs (see Section 5.2.2) are not shown here. Each sample was tested in duplicate. The results shown are representative of two independent experiments.
as §1

recombinant human TNFα [3] = target: T1, recombinant human TNFα; assay: cell-based or functional assay

Binder | fold better at blocking TNF binding, against TNV118 and TNV14 (recombinant human TNFα [1]) [fold] | IC50 (read off the curve) (recombinant human TNFα [2]) [ng/mL] | neutralizing TNFα bioactivity (recombinant human TNFα [3])
B1 | ~4 | ~4 | 4 fold (against TNV14)
B2 | ~4 |  | 
